These results are taken from publication PMC314469, “Protein Interaction Networks by Proteome Peptide Scanning” (PLoS Biology, 2004).

To fix the notation:
T1: Yfr024 SH3 (LSB3_YEAST), P43603
T1 chain: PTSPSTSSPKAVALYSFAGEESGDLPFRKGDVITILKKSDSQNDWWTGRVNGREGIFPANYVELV

T2: Yhr016c SH3 (YSC84_YEAST), P32793
T2 chain: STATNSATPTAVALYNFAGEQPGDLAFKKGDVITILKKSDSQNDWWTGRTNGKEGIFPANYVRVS

T3: Rvs167 SH3 (RV167_YEAST), P39743
T3 chain: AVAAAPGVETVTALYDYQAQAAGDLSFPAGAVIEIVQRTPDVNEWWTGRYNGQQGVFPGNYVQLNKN

T4: Myo5 SH3 (MYO5_YEAST), Q04439
T4 chain: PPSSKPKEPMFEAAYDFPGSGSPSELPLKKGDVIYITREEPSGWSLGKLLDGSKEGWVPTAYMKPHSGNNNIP

T5: Boi1 SH3 (BOI1_YEAST), P38041
T5 chain: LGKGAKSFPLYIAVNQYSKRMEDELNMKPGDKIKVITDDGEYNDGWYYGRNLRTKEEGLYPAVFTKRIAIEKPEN

T6: Boi2 SH3 (BOI2_YEAST), P39969
T6 chain: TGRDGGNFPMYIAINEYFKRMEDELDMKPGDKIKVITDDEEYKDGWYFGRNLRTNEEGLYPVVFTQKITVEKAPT

Chain of Sho1 SH3 (SHO1_YEAST), P40073 (P40073 295-366): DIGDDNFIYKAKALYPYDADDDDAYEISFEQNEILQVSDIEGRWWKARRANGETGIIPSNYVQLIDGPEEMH

The first test concerns the target T1, Yfr024 SH3 (LSB3_YEAST), P43603. Nature of the test: SPOT array.
Molecule QTGSKTVPQAPQAP [YLR095C 762-775] showed a normalised SPOT signal, Boehringer light units (BLU); mean over the file's lines of this peptide of 6.6.
As to QNGLRFNPDVPKLW [YDR449C 169-182], the normalised SPOT signal, Boehringer light units (BLU); mean over the file's lines of this peptide amounted to 86.7.
With QRLDRDKPHEPNGY [YDL076C 274-287], the normalised SPOT signal, Boehringer light units (BLU); mean over the file's lines of this peptide is 105.
Molecule QIVNKPLPPLPVAG [YJL128C 89-102] yielded a normalised SPOT signal, Boehringer light units (BLU); mean over the file's lines of this peptide of 1720.
In turn, QLINRFMPHFPSSP [YHR036W 42-55] came in with a normalised SPOT signal, Boehringer light units (BLU); mean over the file's lines of this peptide of 2780.
QGSNKYSPSSPLTT [YDR122W 964-977] had a normalised SPOT signal, Boehringer light units (BLU); mean over the file's lines of this peptide of 74.9.
The molecule QTVIKTHPRIPKSE [YMR211W 94-107] registered a normalised SPOT signal, Boehringer light units (BLU); mean over the file's lines of this peptide of 134.

The target in another test is T2, Yhr016c SH3 (YSC84_YEAST), P32793. Nature of the test: SPOT array.
QTGSKTVPQAPQAP [YLR095C 762-775] showed a normalised SPOT signal, Boehringer light units (BLU); mean over the file's lines of this peptide of 28.7.
On the same count and under the same terms, the value for QNGLRFNPDVPKLW [YDR449C 169-182] was 8.3.
QRLDRDKPHEPNGY [YDL076C 274-287] returned a normalised SPOT signal, Boehringer light units (BLU); mean over the file's lines of this peptide of 19.3.
The same measure, in the same setting: the value for QIVNKPLPPLPVAG [YJL128C 89-102] was 28.6; that for QLINRFMPHFPSSP [YHR036W 42-55] was 316; that for QGSNKYSPSSPLTT [YDR122W 964-977] was 146.
In turn, QTVIKTHPRIPKSE [YMR211W 94-107] came in with a normalised SPOT signal, Boehringer light units (BLU); mean over the file's lines of this peptide of 63.7.

In the next test the target is T3, Rvs167 SH3 (RV167_YEAST), P39743. Kind of test: SPOT array.
Consider QTGSKTVPQAPQAP [YLR095C 762-775], for which the normalised SPOT signal, Boehringer light units (BLU); mean over the file's lines of this peptide was 56.5.
QNGLRFNPDVPKLW [YDR449C 169-182] yielded a normalised SPOT signal, Boehringer light units (BLU); mean over the file's lines of this peptide of 22.1.
QRLDRDKPHEPNGY [YDL076C 274-287] showed a normalised SPOT signal, Boehringer light units (BLU); mean over the file's lines of this peptide of 52.
QIVNKPLPPLPVAG [YJL128C 89-102] came in with a normalised SPOT signal, Boehringer light units (BLU); mean over the file's lines of this peptide of 41.5.
QLINRFMPHFPSSP [YHR036W 42-55]: the normalised SPOT signal, Boehringer light units (BLU); mean over the file's lines of this peptide was 716.
As to QGSNKYSPSSPLTT [YDR122W 964-977], the normalised SPOT signal, Boehringer light units (BLU); mean over the file's lines of this peptide stood at 37.5.
For QTVIKTHPRIPKSE [YMR211W 94-107], the normalised SPOT signal, Boehringer light units (BLU); mean over the file's lines of this peptide was found to be 9.1.

The target of the next test is T4, Myo5 SH3 (MYO5_YEAST), Q04439. Kind of test: SPOT array.
For the molecule QTGSKTVPQAPQAP [YLR095C 762-775], the normalised SPOT signal, Boehringer light units (BLU); mean over the file's lines of this peptide stood at 62.9.
QNGLRFNPDVPKLW [YDR449C 169-182] registered a normalised SPOT signal, Boehringer light units (BLU); mean over the file's lines of this peptide of 260.
As to QRLDRDKPHEPNGY [YDL076C 274-287], the normalised SPOT signal, Boehringer light units (BLU); mean over the file's lines of this peptide was found to be 218.
QIVNKPLPPLPVAG [YJL128C 89-102] had a normalised SPOT signal, Boehringer light units (BLU); mean over the file's lines of this peptide of 249.
Take QLINRFMPHFPSSP [YHR036W 42-55]: the normalised SPOT signal, Boehringer light units (BLU); mean over the file's lines of this peptide stood at 518.
Same read-out and setting: as for QGSNKYSPSSPLTT [YDR122W 964-977], the figure is 171; as for QTVIKTHPRIPKSE [YMR211W 94-107], 186.

The next test concerns the target Sho1 SH3 (SHO1_YEAST), P40073. Kind of test: SPOT array.
In turn, QTGSKTVPQAPQAP [YLR095C 762-775] gave a normalised SPOT signal, Boehringer light units (BLU); mean over the file's lines of this peptide of 37.7.
On the same count and under the same terms, the value for QNGLRFNPDVPKLW [YDR449C 169-182] was 37.6.
Still for that read-out and setting: as for QRLDRDKPHEPNGY [YDL076C 274-287], the figure is 37.3; as for QIVNKPLPPLPVAG [YJL128C 89-102], 60100.
In turn, QLINRFMPHFPSSP [YHR036W 42-55] registered a normalised SPOT signal, Boehringer light units (BLU); mean over the file's lines of this peptide of 323.
As for QGSNKYSPSSPLTT [YDR122W 964-977], the normalised SPOT signal, Boehringer light units (BLU); mean over the file's lines of this peptide is 44.3.
Molecule QTVIKTHPRIPKSE [YMR211W 94-107] showed a normalised SPOT signal, Boehringer light units (BLU); mean over the file's lines of this peptide of 67.

Another test addresses T5, Boi1 SH3 (BOI1_YEAST), P38041. Nature of the test: SPOT array.
Take QTGSKTVPQAPQAP [YLR095C 762-775]: the normalised SPOT signal, Boehringer light units (BLU); mean over the file's lines of this peptide came to 45.3.
The same measure, in the same setting: as for QNGLRFNPDVPKLW [YDR449C 169-182], the figure is 64.6; as for QRLDRDKPHEPNGY [YDL076C 274-287], 104; as for QIVNKPLPPLPVAG [YJL128C 89-102], 56.1.
Take QLINRFMPHFPSSP [YHR036W 42-55]: the normalised SPOT signal, Boehringer light units (BLU); mean over the file's lines of this peptide is 273.
Regarding QGSNKYSPSSPLTT [YDR122W 964-977], the normalised SPOT signal, Boehringer light units (BLU); mean over the file's lines of this peptide is 34.7.
For the molecule QTVIKTHPRIPKSE [YMR211W 94-107], the normalised SPOT signal, Boehringer light units (BLU); mean over the file's lines of this peptide amounted to 213.

The next test deals with T6, Boi2 SH3 (BOI2_YEAST), P39969. Kind of test: SPOT array.
With QTGSKTVPQAPQAP [YLR095C 762-775], the normalised SPOT signal, Boehringer light units (BLU); mean over the file's lines of this peptide is 17.8.
The molecule QNGLRFNPDVPKLW [YDR449C 169-182] registered a normalised SPOT signal, Boehringer light units (BLU); mean over the file's lines of this peptide of 0.
Molecule QRLDRDKPHEPNGY [YDL076C 274-287] yielded a normalised SPOT signal, Boehringer light units (BLU); mean over the file's lines of this peptide of 12.
The molecule QIVNKPLPPLPVAG [YJL128C 89-102] had a normalised SPOT signal, Boehringer light units (BLU); mean over the file's lines of this peptide of 13.7.
In the case of QLINRFMPHFPSSP [YHR036W 42-55], the normalised SPOT signal, Boehringer light units (BLU); mean over the file's lines of this peptide was found to be 325.
QGSNKYSPSSPLTT [YDR122W 964-977] showed a normalised SPOT signal, Boehringer light units (BLU); mean over the file's lines of this peptide of 31.3.
The molecule QTVIKTHPRIPKSE [YMR211W 94-107] came in with a normalised SPOT signal, Boehringer light units (BLU); mean over the file's lines of this peptide of 17.1.
